This is an account of results in PMC9394474 (2022).

By Kd is commonly meant a measure of binding affinity in units of concentration. The low end stands for a tighter complex, the high end for a looser complex.

Like-named read-outs stand apart in the source and are kept apart here. Ends that are not written are not given here.

For assay [1], the target named is T1, human hisTRIM7- (human, UniProt Q9C029 342-511). In words: ITC.
The target of assay [2] is T1, human hisTRIM7-. The assay is described as follows: ITC. This is another data set of the same source. Background: Isothermal titration calorimetry measures the heat released or taken up as one component is titrated into another.

With DNIKKKLDTYLQ [rbGYG1 322-333 peptide], the Kd in the assay with human hisTRIM7- [1] is 21.1 µM.
In the case of Ac-Leu-Gln [N-terminal acetylated LQ], the Kd with human hisTRIM7- [2] worked out at 144 µM.
